# Reference: patent US7056679 (ANTYRA, dated 2006)
# T1: DGI-2 polypeptide (UniProt Q15004 1-111, limits assumed)
# T1 construct: Soluble recombinant protein coated at 500 ng/well; vector tag of pIVEX2.3-MCS not described for this construct; also called KIAA0101
# T1 sequence (looked up): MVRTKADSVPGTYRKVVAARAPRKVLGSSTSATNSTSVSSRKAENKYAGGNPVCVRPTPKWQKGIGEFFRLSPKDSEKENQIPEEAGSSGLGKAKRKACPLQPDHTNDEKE
# Molecular target: T2, lactate dehydrogenase (LDH)
# T2 construct: Coated at 500 ng/well as non-specific target; also called LDH polypeptide
# Assay: phage ELISA
# Method: (§1) For analysis of individual target binders, colonies were picked and phage prepared as described above using helper phage, M13KO7. Ninety-six-well microtiter plates were coated with 500 ng/well of specific target protein, 500 ng/well lactate dehydrogenase (LDH) irrelevant or non-specific target, 500 ng/well of positive control antibody raised against ETAG, and negative control of non-fat milk powder-PBS 2% at 4° C. overnight. Plates were then blocked with 350 microliters/well PBS containing 2% non-fat milk for 1 hr at room temperature. One hundred microliters per well of phage from isolated clones were added and plates were incubated at room temperature for 2 hr after centrifuging samples for 20 minutes at 3500 rpm at 4° C. The phage solution was then removed, and the wells were washed three times with PBS at room temperature. Antibody raised against M13 conjugated to horseradish peroxidase (Pharmacia) was diluted 1:3000 in PBS-Tween and added to each well (100 µl/well). Incubation was for 1 hr at room temperature, followed by washing with PBS-(0.5%) Tween 3 times as described. Color was developed by addition of ABTS solution (100 µl/well; Boehringer, Indianapolis, Ind.). Plates were analyzed at 405 nm. A clone was considered "positive" if the $A405$ of the well was $\geq$2-fold over background.
row,Binder,LDH (OD)
1,DRHRAFVAEGLDGFRHSTGVAAAGAPVPYPDPLEPRP [DGI-2-20F-PP-D4],1.1
2,GSTRLRVTVRFCSETGTPGCAAAGAPVPYPDPLEPRP [DGI-2-20F-PP-G6],1.1
3,VGHLLSRCAHHSPGMGASPYGAAAGAPVPYPDPLEPRP [DGI-2-20F-PP-B11],1
4,CYLSRLFRSGQGIGQFGHVEAAAGAPVPYPDPLEPRP [DGI-2-20F-PP-A82],1.1
5,VVGYAQGDGLEGGLGSSRDGSAAAGAPVPYPDPLEPRP [DGI-2-20F-PP-D8],1.1
6,WVVALRRIRLGLRRGVECLLAAAGAPVPYPDPLEPRP [DGI-2-20F-PP-D5],1.2
7,DRSRAPLCADKSGRWQRYRRAAAGAPVPYPDPLEPRP [DGI-2-20F-PP-C10],0.9
8,PVYRVAMCRISVGCSAGAWFAAAGAPVPYPDPLEPRP [DGI-2-20F-PP-C12],0.9
9,VTGTRFRGFAVACVRMGTWHAAAGAPVPYPDPLEPRP [DGI-2-20F-PP-F2],1
10,VGQSSGDARPLANLFVFPFVAAAGAPVPYPDPLEPRP [DGI-2-20F-PP-F12],0.9
11,SVSGGGVFGTGGRVRHQVSGAAAGAPVPYPDPLEPRP [DGI-2-20F-PP-C5],0.9
12,RRFVRCSVPVALRSAVPVSVAAAGAPVPYPDPLEPRP [DGI-2-20F-PP-A10],1
13,GGDLGEQGVQLCPDVVRGGSLAAAGAPVPYPDPLEPRP [DGI-2-20F-PP-A7],0.9
14,TPVAISIPAGVCSTSVCGRDAAAGAPVPYPDPLEPRP [DGI-2-20F-PP-C11],0.9
15,CCAWNGVGVGGLGWRVVVGPAAAGAPVPYPDPLEPRP [DGI-2-20F-PP-H4],1
16,VSGVPDGSMRAAQLASGYWCAAAGAPVPYPDPLEPRP [DGI-2-20F-PP-G2],1.1
17,LFRFSGTGMASLPCVGWHLVAAAGAPVPYPDPLEPRP [DGI-2-20F-PP-B6],1
18,TFTRDVAGPAVSFVRLHSWNAAAGAPVPYPDPLEPRP [DGI-2-20F-PP-A9],1.2
19,RVSYEMLGRRRRSMHGSSMRAAAGAPVPYPDPLEPRP [DGI-2-20F-PP-A4],1.1
20,SVTISTSCRTGCPAGYLRRDAAAGAPVPYPDPLEPRP [DGI-2-20F-PP-D2],0.7
21,EGQRVVFLFGALVAGLCWRDRAAAGAPVPYPDPLEPRP [DGI-2-20F-PP-F3],1.1
22,SAFGCPLPRALGGGGARFYAAAAGAPVPYPDPLEPRP [DGI-2-20F-PP-E11],0.9
23,RQRSGGRWVVDRVTRVASTSPAAAGAPVPYPDPLEPRP [DGI-2-20F-PP-B12],1.1
24,SLFERSARSRYHGSPDCNGSAAAGAPVPYPDPLEPRP [DGI-2-20F-PP-A3],1.2
25,SLLCVVCRPVSGGRALGGVPAAAGAPVPYPDPLEPRP [DGI-2-20F-PP-B42],1
26,GGSLPVKSGQLVTCCTSKGGAAAGAPVPYPDPLEPRP [DGI-2-20F-PP-F5],0.9
27,VQSGRDLGGLLRGGTGTEASPAAAGAPVPYPDPLEPRP [DGI-2-20F-PP-D3],0.9
28,GASRVVDVGWRFWGKLWQRSAAAGAPVPYPDPLEPRP [DGI-2-20F-PP-G5],1.2
29,GLYQRGLAPRCRGERFGVRNAAAGAPVPYPDPLEPRP [DGI-2-20F-PP-C2],1.1

# Molecular target: T3, antibody raised against ETAG
# T3 construct: Coated at 500 ng/well; also called E-tag antibody
# Assay: phage ELISA
# Method: as §1
row,Binder,ETAG (OD)
1,DRHRAFVAEGLDGFRHSTGVAAAGAPVPYPDPLEPRP [DGI-2-20F-PP-D4],44
2,GSTRLRVTVRFCSETGTPGCAAAGAPVPYPDPLEPRP [DGI-2-20F-PP-G6],36.1
3,VGHLLSRCAHHSPGMGASPYGAAAGAPVPYPDPLEPRP [DGI-2-20F-PP-B11],40.8
4,CYLSRLFRSGQGIGQFGHVEAAAGAPVPYPDPLEPRP [DGI-2-20F-PP-A82],16.5
5,VVGYAQGDGLEGGLGSSRDGSAAAGAPVPYPDPLEPRP [DGI-2-20F-PP-D8],2.6
6,WVVALRRIRLGLRRGVECLLAAAGAPVPYPDPLEPRP [DGI-2-20F-PP-D5],33.6
7,DRSRAPLCADKSGRWQRYRRAAAGAPVPYPDPLEPRP [DGI-2-20F-PP-C10],8.6
8,PVYRVAMCRISVGCSAGAWFAAAGAPVPYPDPLEPRP [DGI-2-20F-PP-C12],36.4
9,VTGTRFRGFAVACVRMGTWHAAAGAPVPYPDPLEPRP [DGI-2-20F-PP-F2],1.9
10,VGQSSGDARPLANLFVFPFVAAAGAPVPYPDPLEPRP [DGI-2-20F-PP-F12],47.6
11,SVSGGGVFGTGGRVRHQVSGAAAGAPVPYPDPLEPRP [DGI-2-20F-PP-C5],33.9
12,RRFVRCSVPVALRSAVPVSVAAAGAPVPYPDPLEPRP [DGI-2-20F-PP-A10],16.3
13,GGDLGEQGVQLCPDVVRGGSLAAAGAPVPYPDPLEPRP [DGI-2-20F-PP-A7],42.2
14,TPVAISIPAGVCSTSVCGRDAAAGAPVPYPDPLEPRP [DGI-2-20F-PP-C11],3.2
15,CCAWNGVGVGGLGWRVVVGPAAAGAPVPYPDPLEPRP [DGI-2-20F-PP-H4],32.9
16,VSGVPDGSMRAAQLASGYWCAAAGAPVPYPDPLEPRP [DGI-2-20F-PP-G2],5.6
17,LFRFSGTGMASLPCVGWHLVAAAGAPVPYPDPLEPRP [DGI-2-20F-PP-B6],37
18,TFTRDVAGPAVSFVRLHSWNAAAGAPVPYPDPLEPRP [DGI-2-20F-PP-A9],40.8
19,RVSYEMLGRRRRSMHGSSMRAAAGAPVPYPDPLEPRP [DGI-2-20F-PP-A4],6.6
20,SVTISTSCRTGCPAGYLRRDAAAGAPVPYPDPLEPRP [DGI-2-20F-PP-D2],30.8
21,EGQRVVFLFGALVAGLCWRDRAAAGAPVPYPDPLEPRP [DGI-2-20F-PP-F3],18.7
22,SAFGCPLPRALGGGGARFYAAAAGAPVPYPDPLEPRP [DGI-2-20F-PP-E11],15.2
23,RQRSGGRWVVDRVTRVASTSPAAAGAPVPYPDPLEPRP [DGI-2-20F-PP-B12],1.9
24,SLFERSARSRYHGSPDCNGSAAAGAPVPYPDPLEPRP [DGI-2-20F-PP-A3],12.9
25,SLLCVVCRPVSGGRALGGVPAAAGAPVPYPDPLEPRP [DGI-2-20F-PP-B42],21.5
26,GGSLPVKSGQLVTCCTSKGGAAAGAPVPYPDPLEPRP [DGI-2-20F-PP-F5],16.3
27,VQSGRDLGGLLRGGTGTEASPAAAGAPVPYPDPLEPRP [DGI-2-20F-PP-D3],15
28,GASRVVDVGWRFWGKLWQRSAAAGAPVPYPDPLEPRP [DGI-2-20F-PP-G5],27.7
29,GLYQRGLAPRCRGERFGVRNAAAGAPVPYPDPLEPRP [DGI-2-20F-PP-C2],6

# Molecular target: T1, DGI-2 polypeptide
# Assay: phage ELISA
# Method: as §1
Binder,DGI-2 (OD),DGI-2/LDH [ratio]
DRHRAFVAEGLDGFRHSTGVAAAGAPVPYPDPLEPRP [DGI-2-20F-PP-D4],2.6,2.3
GSTRLRVTVRFCSETGTPGCAAAGAPVPYPDPLEPRP [DGI-2-20F-PP-G6],2.7,2.5
VGHLLSRCAHHSPGMGASPYGAAAGAPVPYPDPLEPRP [DGI-2-20F-PP-B11],2.6,2.7
CYLSRLFRSGQGIGQFGHVEAAAGAPVPYPDPLEPRP [DGI-2-20F-PP-A82],2.5,2.3
VVGYAQGDGLEGGLGSSRDGSAAAGAPVPYPDPLEPRP [DGI-2-20F-PP-D8],2.3,2.2
WVVALRRIRLGLRRGVECLLAAAGAPVPYPDPLEPRP [DGI-2-20F-PP-D5],2.7,2.3
DRSRAPLCADKSGRWQRYRRAAAGAPVPYPDPLEPRP [DGI-2-20F-PP-C10],2.7,3.1
PVYRVAMCRISVGCSAGAWFAAAGAPVPYPDPLEPRP [DGI-2-20F-PP-C12],2.5,2.9
VTGTRFRGFAVACVRMGTWHAAAGAPVPYPDPLEPRP [DGI-2-20F-PP-F2],2.4,2.5
VGQSSGDARPLANLFVFPFVAAAGAPVPYPDPLEPRP [DGI-2-20F-PP-F12],2.1,2.3
SVSGGGVFGTGGRVRHQVSGAAAGAPVPYPDPLEPRP [DGI-2-20F-PP-C5],2.2,2.4
RRFVRCSVPVALRSAVPVSVAAAGAPVPYPDPLEPRP [DGI-2-20F-PP-A10],2.4,2.4
GGDLGEQGVQLCPDVVRGGSLAAAGAPVPYPDPLEPRP [DGI-2-20F-PP-A7],2.6,2.8
TPVAISIPAGVCSTSVCGRDAAAGAPVPYPDPLEPRP [DGI-2-20F-PP-C11],2.4,2.6
CCAWNGVGVGGLGWRVVVGPAAAGAPVPYPDPLEPRP [DGI-2-20F-PP-H4],2.1,2.2
VSGVPDGSMRAAQLASGYWCAAAGAPVPYPDPLEPRP [DGI-2-20F-PP-G2],2.4,2.1
LFRFSGTGMASLPCVGWHLVAAAGAPVPYPDPLEPRP [DGI-2-20F-PP-B6],2.5,2.6
TFTRDVAGPAVSFVRLHSWNAAAGAPVPYPDPLEPRP [DGI-2-20F-PP-A9],2.7,2.3
RVSYEMLGRRRRSMHGSSMRAAAGAPVPYPDPLEPRP [DGI-2-20F-PP-A4],2.7,2.6
SVTISTSCRTGCPAGYLRRDAAAGAPVPYPDPLEPRP [DGI-2-20F-PP-D2],2.2,3.1
EGQRVVFLFGALVAGLCWRDRAAAGAPVPYPDPLEPRP [DGI-2-20F-PP-F3],2.6,2.2
SAFGCPLPRALGGGGARFYAAAAGAPVPYPDPLEPRP [DGI-2-20F-PP-E11],2,2.2
RQRSGGRWVVDRVTRVASTSPAAAGAPVPYPDPLEPRP [DGI-2-20F-PP-B12],2.3,2.2
SLFERSARSRYHGSPDCNGSAAAGAPVPYPDPLEPRP [DGI-2-20F-PP-A3],2.8,2.4
SLLCVVCRPVSGGRALGGVPAAAGAPVPYPDPLEPRP [DGI-2-20F-PP-B42],2.4,2.5
GGSLPVKSGQLVTCCTSKGGAAAGAPVPYPDPLEPRP [DGI-2-20F-PP-F5],2.3,2.5
VQSGRDLGGLLRGGTGTEASPAAAGAPVPYPDPLEPRP [DGI-2-20F-PP-D3],2.2,2.4
GASRVVDVGWRFWGKLWQRSAAAGAPVPYPDPLEPRP [DGI-2-20F-PP-G5],2.4,2
GLYQRGLAPRCRGERFGVRNAAAGAPVPYPDPLEPRP [DGI-2-20F-PP-C2],2.7,2.5
